# Substitutions are numbered along the chain they refer to.
# B1: YK-RSV-052 (protein)
# chain: QNITEEFYQSTCSAVSKGYLGALRTGWYTSVITIELSNIKENKCNGTDAKVKLIKQELDKYKNAVTDLQLLMQSTPATGSGCAIASGVAVSKVLHLEGEVNKIKSALLSTNKAVVSLSNGVSVLTFKVLDLKNYIDKQLLPILNKQSCSIPNIETVIEFQQKNNRLLEITREFSVNAGVTTPVSTYMLTNSELLSLINDMPITNDQKKLMSNNVQIVRQQSYSIMSIIKEEVLAYVVQLPCYGVIDTPCWKLHTSPLCTTNTKEGSNICLTRTDRGWYCDNAGSVSFFPQAETCKVQSNRVFCDTMNSRTLPSEVNLCNVDIFNPKYDCKIMTSKTDVSSSVITSLGAIVSCYGKTKCTASNKNRGIIKTFSNGCDYVSNKGVDTVSVGNTLYYVNKQEGQSLYVKGEPIINFYDPLVFPSDEFDASISQVNEKINQSLAFIRKSDELLHNVNAGKSTTNIMITTIIIVIIVILLSLIAVGLLLY
# B2: YK-RSV-059 (protein)
# chain: B1 chain with C82S, C241L, N261C, G407C
# B3: YK-RSV-002 (protein)
# chain: B1 chain with T29H, C82S, A85C, S91C, L143V, S226C, C241L, Y394C, D422S
# B4: YK-RSV-058 (protein)
# chain: B1 chain with C82S, C241L, S266C, G407C
# Test system: RSV F antibody (11A9)
# Experiment: Binding of epitope II of RSV F antigen mutants by flow cytometry
# Conditions: epitope II, antibody 11A9
# Procedure, shortened: (§1)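 293T cells were transfected with mRNA-LNP (300 ng mRNA) encoding the RSV F mutants and harvested after 16 h. Cells were stained with fluorescent 3C12 (pre-F-specific epitope Φ) or 11A9 (epitope II, pre-F and post-F) for 2 h at 4 °C in the dark, then washed and read by flow cytometry on 1×10^4 cells per measurement.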
row,Molecule,RSV F antibody (11A9) Epitope II (%) binding rate [%]
1,B1,93.7
2,B2,89.8
3,B3,93.5
4,B4,88.7

# Test system: RSV pre-F antibody (3C12)
# Experiment: Binding of epitope Φ of RSV F antigen mutants by flow cytometry
# Conditions: flow cytometry; epitope Φ, antibody 3C12
# Procedure, shortened: as §1
row,Molecule,RSV pre-F antibody (3C12) Epitope Φ (%) binding rate [%]
1,B1,89.4
2,B2,83.1
3,B3,88.0
4,B4,81.2

# Same assay, conditions: ratio of epitope Φ (3C12) to epitope II (11A9) binding rate
row,Molecule,Φ/II (%)
1,B1,95.4
2,B2,92.5
3,B3,94.1
4,B4,91.5

# Test system: RSV pre-F antibody (3C12)
# Experiment: not given
# Type: physicochemical
# Conditions: high osmotic pressure 3000 mM, room temperature, 60 min; ELISA binding to 3C12
# Procedure, shortened: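 RSV F mRNA-vaccine mutants stress-treated: 4° C. for one week, 50° C. for 60 min, low or high osmotic pressure at room temperature for 60 min, acid or base at room temperature for 60 min. Binding to 3C12 (epitope Φ) then measured by ELISA against pre-F trimer standard, HRP anti-human IgG, OD 450/630 nm.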
row,Molecule,"Stress resistance parameter, Osmotic pressure (mM) 3000"
1,B1,0.30 ± 0.06
2,B2,0.44 ± 0.03
3,B3,0.44 ± 0.13
4,B4,0.50 ± 0.05

# Same assay, conditions: incubation at 50° C. for 60 min; ELISA binding to 3C12
row,Molecule,"Stress resistance parameter, Temperature (° C.) 50"
1,B1,0.69 ± 0.09
2,B2,0.74 ± 0.07
3,B3,0.46 ± 0.06
4,B4,0.73 ± 0.09

# Same assay, conditions: low osmotic pressure 10 mM, room temperature, 60 min; ELISA binding to 3C12
row,Molecule,"Stress resistance parameter, Osmotic pressure (mM) 10"
1,B1,0.88 ± 0.21
2,B2,0.49 ± 0.02
3,B3,0.84 ± 0.14
4,B4,0.60 ± 0.04

# Same assay, conditions: pH 3.5, room temperature, 60 min; ELISA binding to 3C12
row,Molecule,"Stress resistance parameter, pH 3.5"
1,B1,0.80 ± 0.04
2,B2,0.73 ± 0.03
3,B3,0.65 ± 0.08
4,B4,0.72 ± 0.03

# Same assay, conditions: pH 10, room temperature, 60 min; ELISA binding to 3C12
row,Molecule,"Stress resistance parameter, pH 10"
1,B1,1.22 ± 0.14
2,B2,0.82 ± 0.09
3,B3,0.97 ± 0.14
4,B4,0.81 ± 0.05

# Same assay, conditions: storage at 4° C. for one week; ELISA binding to 3C12
row,Molecule,"Stress resistance parameter, Temperature (° C.) 4"
1,B1,0.42 ± 0.10
2,B2,0.52 ± 0.10
3,B3,0.61 ± 0.11
4,B4,0.36 ± 0.07
